In the assay the target is T1, CHN-1 (C. elegans).
T1 chain: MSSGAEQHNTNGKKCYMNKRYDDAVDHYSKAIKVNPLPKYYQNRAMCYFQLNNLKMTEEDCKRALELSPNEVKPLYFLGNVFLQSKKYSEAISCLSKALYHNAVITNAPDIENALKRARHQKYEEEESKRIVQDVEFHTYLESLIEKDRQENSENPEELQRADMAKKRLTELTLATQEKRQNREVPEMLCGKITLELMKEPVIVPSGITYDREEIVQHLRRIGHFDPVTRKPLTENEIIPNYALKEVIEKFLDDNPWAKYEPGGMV
Kind of assay: ELISA. In general terms: In an ELISA, binding on a coated surface is turned into a signal by an enzyme label.

B1: UFD-2 (enzyme)
chain: MIEDEKAGLQPMDISDASVFFFQADVESKDFLTSLFDCEGKSDDRMLRYADAIIDVQNLNFDVSPQCLQSNIAEIITKFVLLSQDGSRRGLSRSFNFIDPDIIAGCREEDAIEFLLINFVRCHHELGKSGTSNCYKKTLESTRKAVFSVFVMIQRGYLESQLRSQHASLVFTKRLLEDTVSNVFLRTLVEYLASTDECDEDAITETFNPIFGILRSGIICQRFEDNKDEIVRQILRVMNLLLSIRLPSNGPRPLSNLLVNREDFLPTPSEKIQGREFGLMSFLGPFFSYGLESSARRPNHRVFVDCEEDARKYDGSVNTEQKLYFQRMDPIRTMLHQLMLPLASDQGSRNKTLRWIATIISTNDIRTRSHYDPSDVLCDHYMTNFLSVMYMFSEKIDLSKIIVDYPFLPSSLINISKETRLKMDESGAVAFASQFADRPDEYHFSTVCFFLTIAAQRLVIPPLMNQISEYSRHLKELKHKINALKEKLNTVSGFERAEVEKKLNYETEHWKLMSRHLLCVKTQAQDPALMASSMDFVDKQMKFILNLLCDNLDLLGDDSQLPTEVSQMFCALPEYFLEDALDFYIFAISNGMKLLMERNADWISRLTVLFTQYHYIKSPFLVSKLVRVLSSIQPPLWFNVVRLRMAQENLLMCMIKFYSDFEDNGDFYEKFNVRGNIQYMLEKMEEDMFYKGKFMDMARECGAEFIRFVNMVINDATWCIDESLSGLKSIHDVEKKMANKVEWDNTDQEIRNQDLGVYEEAKRKVKGWLGTAKSNLKLLLSITVNSPEPFRTPVLGERLAAMLNHNLSQLIGSKASELKVKDPRSYGWEPREFVSLLISIYLKLNMPAFVKYIAYDERTYSPEFFHNAIECMRKNSIVGFSQLESFEHLAEDVKKEYEAKAELEEEYDDVPEEFKDPIMDAIMVDPVKLPSGHVMDRAVIERHLLSTPNNPFNRAPLSHNELSPDSELKAKIQEWICQKRNSKK
The term Kd denotes the concentration at which binding is half-saturated. The molecule B1 showed a Kd of 37.8 nM.

B2: HSP-1::6xHis (natural protein)
chain: not shown
For B2, the Kd amounted to 12.2 nM.

For the origin of these results see article PMC9340540 (2022).
